Results taken from paper PMC5116005 (Journal of molecular biology, 2016).
Ends that are not written are not given here.

Tests used:
NtrC1^C oligomer = assay: Native PAGE gel binding assay, dye fluorescence visualized at 488 nm; design: species or system Aquifex aeolicus; conditions: 0.16 µM Alexa488-σ54(16-41), ADP-BeF3− at 500 µM, native PAGE 4–15%, Typhoon 488 nm
[1] = biological target: Alexa488-full length σ^54 (K2C) (UniProt P24255); assay: fluorescence polarisation
[2] = biological target: T1, NtrC1^C(121–387), central AAA+ ATPase domain of A. aeolicus NtrC1 (A. aeolicus, UniProt O67198 121-387); assay: fluorescence polarisation
T1 sequence (looked up): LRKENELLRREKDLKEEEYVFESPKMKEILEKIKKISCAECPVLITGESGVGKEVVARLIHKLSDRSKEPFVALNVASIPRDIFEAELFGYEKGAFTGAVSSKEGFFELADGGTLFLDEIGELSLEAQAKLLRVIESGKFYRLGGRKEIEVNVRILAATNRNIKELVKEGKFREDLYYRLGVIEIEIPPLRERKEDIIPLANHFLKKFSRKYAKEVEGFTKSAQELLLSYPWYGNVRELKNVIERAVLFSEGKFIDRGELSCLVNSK

Alexa488-σ^54(16-41): σ54(16-41) with N-terminal Trp-Cys, cysteine derivatized with Alexa Fluor 488 maleimide (WC(Alexa Fluor 488 maleimide)LLLKQDLELLTYQTQELEKLIHEEVL)
Binding to NtrC1^C oligomer on native gel with ADP-BeF3− (NtrC1^C oligomer): bound to NtrC1^C

B1: NtrC1^C(121–387), central AAA+ ATPase domain of A. aeolicus NtrC1 (domain or fragment)
chain: LRKENELLRREKDLKEEEYVFESPKMKEILEKIKKISCAECPVLITGESGVGKEVVARLIHKLSDRSKEPFVALNVASIPRDIFEAELFGYEKGAFTGAVSSKEGFFELADGGTLFLDEIGELSLEAQAKLLRVIESGKFYRLGGRKEIEVNVRILAATNRNIKELVKEGKFREDLYYRLGVIEIEIPPLRERKEDIIPLANHFLKKFSRKYAKEVEGFTKSAQELLLSYPWYGNVRELKNVIERAVLFSEGKFIDRGELSCLVNSK
Kd [1]: 2 µM

WC(Alexa Fluor 488 maleimide)LLLKQDLELLTYQTQELEKLIHEEVL [Alexa488-σ^54(16-41) (A.a. σ^54(WC-16-41))]
Kd [2]: 1 µM
